Data published in the nanobody polyreactivity screen of Harvey et al. (2022).

Assay: yeast display, Sf9 membrane polyspecificity reagent, FACS + sequencing; frameworks hold sequencing errors
In short: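 Synthetic nanobody libraries on Saccharomyces cerevisiae BJ5465 were galactose-induced for 36–48 hours, stained 1 hour at 4 °C with 10% biotinylated, detergent-solubilized Sf9 membrane reagent and enriched on streptavidin microbeads. FACS then separated cells into low and high (top ~1%) gates by anti-HA (expression) and streptavidin (reagent binding) fluorescence. Genes were colony-PCR amplified, MiSeq 2 × 250 sequenced and CDR-length filtered. A clone's polyreactivity label is that of its gate of origin.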

Row | Sequence | polyreactivity (PSR sort gate)
1 | QVQLVESGGGLVQAGGSLRLSCAASGGIFWVNAMGWYRQAPGKERELVAAISWSDDNTYYADSVKGRFTISRDNAKNTVYLQMNSLKPEDTAVYYCAKDFYDYGSFYWYEYWGQGTQVTVSS | high polyreactivity
2 | QVQLVDTGRGLVQAGGSLRLSCAPSGRTFGYNAMGWYRQAPGKERELVAAINWSGASTYYADSVKWRFTISRDNAKNTVYLQMKSLKPEDTAVYYCAADYSYIYGFDYWGQGTQVTVST | low polyreactivity
3 | QVQLVESGGGLVQAGGSLRLSCAASGSTFLYYAMGWYRQAPRKESELVATITDGGSTNYSDSVKGRFTISRDNAKNTVDLQMNSLKPEDTAVYYCAKRQWRPTYRYGYWGQGTQVTVSS | low polyreactivity
4 | QVQIVESVGRLVQAGCSLRLSCDASGRIFGTNAKGWYSQAPGKDRELFAAINGSDSSTYYADSVKGRFTISRDNAKNSDYLQMNSLKPEDNAVYYCNADWSRAPERSTYGYDYWGHGTQVTVSS | low polyreactivity
5 | QVQLHESGGGLVQAGGSLRLSCAASGTISYAGPMGWYRQAPGKEREFVAGIGVGSNTNYADSVKGRYTIIRDNAKNTVYLQMNSLKPEDTAVYYCAVGGYAPLGRPYWGQGTQVTVCS | low polyreactivity
6 | QVQLVESGGGLVQAGGSLRLSCAASGNIFYRYAMGWYRQAPGKERELVAAISGNSGNTYYADSVKGRFTISRDIAKNTVYLQMNSLKPEDTAVYYCAAERRAFGHYSWGQGTQVTVSS | high polyreactivity
7 | QVQLVESGGGLVQAGGSLRLSCAASGSTFPWYTMGWYRQAPGKERELVAAISFSGGRTYYADSVKGRFTISRDNAKNTVYLQMNSLKPEDTAVYYCAATVGAASRYYYWGQGTQVTVSS | high polyreactivity
8 | QVQLVESGGGLVQAGGSLRLSCAASGSTFVNNAMGWYRQAPGKERELVAAIRNTGGRTYYADSVKGRFTISRDNAKNTVYLQMNSLKPEDTAVYYCAALSRVRTLWRMDYWGQGSQVTVSS | high polyreactivity
9 | QVQLVESGGGLVQAGGSLRLSCAASGRIFERYAMGWYRQEPGKERELVAGISISGGGTYYADSVKGRFTISRDNAKNTVYLQMNSLKPEDTAVYYCAGTFPREEYGYWGQGTQVTVSS | low polyreactivity
10 | QVQLVESGGGLVQAGGSLRLSCAASGSTFTNNDMGWYRPAPGKERELVAAITDSDGITYYADSVKGRFTISRDNAKNTVYLQMNSLKPDDSAVYYCAAYYYGSVAQDREYWGQGTQVTVSS | high polyreactivity
11 | QVQLEESGGGLVQAGGSLRLSCAASGRIFWGYAMGWYRQAPGKERELVAGITYSGGSTYYADSVKGRFTISRDNAKNTVYLQMNSLKPEDTAVYYCAADATPGRGVDYWGQGTQVTVSS | high polyreactivity
12 | QVQLVESGGGLVQAGGSLRLSCAASGSTFSRNAMGWSRQAPGKERELVAAISWRGGRTYYADSVKGRFTISRDNAKNTVYLQMNSLKPEDTAVYYCAAEHKYRYDYWGQGTQVTVSS | low polyreactivity
13 | QDQLVESGGGLVQAGGSLRLSCAASGRIFKVYAMGRYRQAPGKERELVAAITRNTGSTYYADSVKGRFTISRDNAKNTVYLQMNSLKPEDTSVFYCAVDVRSGRAYDYWGQGTQVTVSS | high polyreactivity
14 | QVQLVESGGGLVQAGGSLRLSCAASGFIFRHYAMGWYRPAPGKERELVAAITSGGTTYYADSVKGRFTISRDNAKNTVYLQMNSLKPEDTAVYYCNTVYYRPGQDVDYWGQGTQVTVSS | high polyreactivity
15 | QVQLVESGGGLVQAGGSLRLSCAASGSTVYTNAMGWYRQAPGKERELVAAISSSGDSTYYADSVKGRFTISRDNAKNTVYLQMNSLKPEDTAVYYCAADKYLSYDFWGQGTQVTVSS | low polyreactivity
16 | QVQLVESGGGLVQAGGSLRLSCADSGRIFGYYAMGWYRQAPGKERELVAAITVSDGRTNYADSVKGRFTISRDNAKNTVYLQMNSLKPEDTAVYYCAAVTPFRVLYDYWGQGTQVTVSS | low polyreactivity
